Data published in the Human Domainome abundance scans (Beltran et al. 2025).
± gives the uncertainty stated by the source.

B1: Ankyrin repeat and SOCS box protein 14, residues 532 to 572; numbered along this chain, A6NK59 (parent)
chain: RSLKHLCRLKIRKCMGRLHLRCPVFMSFLPLPNRLKAYVLY

Variants of: B1
Experiment: abundance fitness (aPCA) (normalised: wild type 0, dead -1); higher = more abundant; growth selection in yeast, the domain comes from the species named
Settings: Homo sapiens

Abundance fitness of substitutions, site by site:
Y38: E -0.599 ± 0.081; L -0.346 ± 0.084; W 0.295 ± 0.052; Q -0.45 ± 0.083; H -0.535 ± 0.16; R -0.446 ± 0.052; P -0.731 ± 0.12; K -0.485 ± 0.091; D -0.681 ± 0.11; C -0.622 ± 0.1; G -0.59 ± 0.091; V -0.558 ± 0.059; I -0.293 ± 0.29; M -0.454 ± 0.13; T -0.478 ± 0.082; A -0.343 ± 0.063; S -0.436 ± 0.059
Y41: T 0.169 ± 0.17; W 0.072 ± 0.095; M 0.257 ± 0.094; N -0.052 ± 0.19; V 0.398 ± 0.13; R 0.373 ± 0.056; S 0.356 ± 0.063; H 0.12 ± 0.07; G 0.368 ± 0.14; C 0.146 ± 0.071
A37: H -0.118 ± 0.072; V -0.482 ± 0.058; M -0.207 ± 0.082; R -0.002 ± 0.045; E 0.021 ± 0.1; W -0.502 ± 0.057; S -0.143 ± 0.059; L -0.404 ± 0.06; P -0.995 ± 0.11; C -0.091 ± 0.11; G -0.291 ± 0.05; Q 0.083 ± 0.093
R34: S -0.218 ± 0.066; F -0.168 ± 0.12; L -0.709 ± 0.095; A -0.255 ± 0.048; G -0.29 ± 0.046; V -0.447 ± 0.067; C -0.204 ± 0.056; K -0.166 ± 0.094; T -0.203 ± 0.098; P -0.582 ± 0.12; W 0.022 ± 0.054; M -0.714 ± 0.13; Q -0.44 ± 0.2; H -0.455 ± 0.32; Y -0.155 ± 0.26; E -0.054 ± 0.1
K36: Y -0.335 ± 0.23; Q -0.374 ± 0.12; I -0.274 ± 0.18; S -0.662 ± 0.09; N -0.932 ± 0.3; T -0.423 ± 0.071; C -0.398 ± 0.13; F -0.022 ± 0.21; V -0.051 ± 0.058; M -0.398 ± 0.12; W -0.062 ± 0.057; L -0.242 ± 0.053; G -0.599 ± 0.073; E -0.732 ± 0.16; A -0.382 ± 0.075; P -0.725 ± 0.11; R -0.294 ± 0.055
N33: I -0.452 ± 0.27; R 0.044 ± 0.046; P -0.004 ± 0.064; W -0.528 ± 0.078; L -0.432 ± 0.073; A 0.234 ± 0.046; G 0.216 ± 0.049; D 0.057 ± 0.12; S 0.105 ± 0.057; E 0.173 ± 0.049; Y -0.586 ± 0.23; K -0.222 ± 0.09; H 0.129 ± 0.084; C -0.151 ± 0.14; M -0.629 ± 0.21; Q 0.111 ± 0.068
L40: G -0.312 ± 0.051; E 0.031 ± 0.059; T -0.247 ± 0.079; R 0.055 ± 0.046; S -0.092 ± 0.078; V -0.132 ± 0.056; A -0.075 ± 0.056; Q -0.192 ± 0.092; D -0.113 ± 0.26; P -0.405 ± 0.13
V39: W -0.43 ± 0.065; L -0.098 ± 0.087; G -0.743 ± 0.069; S -0.779 ± 0.13; I -0.022 ± 0.24; D -0.95 ± 0.22; A -0.361 ± 0.066; Q -1.3 ± 0.2; T -0.186 ± 0.19
L31: W -0.187 ± 0.049; Y -0.795 ± 0.14
P32: S -0.363 ± 0.062; F 0.465 ± 0.062; D -0.998 ± 0.29; I -0.013 ± 0.12; C 0.239 ± 0.062; R -0.452 ± 0.048; E -1.07 ± 0.13; K -0.179 ± 0.07; M 0.212 ± 0.072; G -0.223 ± 0.05; Q -0.587 ± 0.091; L 0.403 ± 0.047; A 0.08 ± 0.048; W 0.552 ± 0.049; Y 0.221 ± 0.14; H -0.47 ± 0.17
L35: W 0.044 ± 0.082; R -1.28 ± 0.12; I -0.18 ± 0.11; H -0.955 ± 0.35; V -0.103 ± 0.048; C -0.135 ± 0.21; D -1.24 ± 0.23; A -0.466 ± 0.058; G -1.13 ± 0.094; K -1.29 ± 0.47; T -0.966 ± 0.17; E -1.12 ± 0.26; P -0.913 ± 0.19; S -0.66 ± 0.091; N -0.729 ± 0.47
